Assay [1] addresses T1, OFD1-Flag recombinant protein (UniProt O75665 1-1012).
T1 construct: OFD1; also called recombinant OFD1; source: HEK293S, purified (Flag agarose, eluted with Flag peptide)
T1 sequence (looked up): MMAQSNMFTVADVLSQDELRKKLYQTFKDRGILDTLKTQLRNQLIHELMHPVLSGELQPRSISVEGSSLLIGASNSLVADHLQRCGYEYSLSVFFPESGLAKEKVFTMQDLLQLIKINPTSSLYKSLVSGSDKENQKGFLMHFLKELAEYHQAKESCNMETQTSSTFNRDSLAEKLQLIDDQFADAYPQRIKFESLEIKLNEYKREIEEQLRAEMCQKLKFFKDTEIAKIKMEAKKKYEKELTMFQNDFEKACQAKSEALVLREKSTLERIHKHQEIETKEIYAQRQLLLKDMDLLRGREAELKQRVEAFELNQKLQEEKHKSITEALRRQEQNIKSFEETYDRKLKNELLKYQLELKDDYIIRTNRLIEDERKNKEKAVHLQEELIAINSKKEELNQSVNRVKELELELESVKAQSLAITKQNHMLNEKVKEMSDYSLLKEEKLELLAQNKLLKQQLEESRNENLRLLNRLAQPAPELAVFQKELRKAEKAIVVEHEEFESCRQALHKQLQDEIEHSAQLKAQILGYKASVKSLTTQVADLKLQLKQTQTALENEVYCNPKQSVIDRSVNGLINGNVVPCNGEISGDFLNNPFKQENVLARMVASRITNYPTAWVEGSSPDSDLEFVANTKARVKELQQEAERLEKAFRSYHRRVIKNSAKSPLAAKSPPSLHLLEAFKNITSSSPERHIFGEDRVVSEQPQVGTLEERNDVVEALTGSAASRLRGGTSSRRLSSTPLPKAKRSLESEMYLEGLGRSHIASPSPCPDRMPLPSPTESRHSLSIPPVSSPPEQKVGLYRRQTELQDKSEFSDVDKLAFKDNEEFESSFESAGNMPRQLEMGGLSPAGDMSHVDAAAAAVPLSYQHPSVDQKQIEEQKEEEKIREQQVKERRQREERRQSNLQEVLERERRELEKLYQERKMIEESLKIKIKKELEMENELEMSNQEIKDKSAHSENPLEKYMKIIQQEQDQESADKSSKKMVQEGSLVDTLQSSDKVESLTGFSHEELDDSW
Description: pull-down; 20 μg purified OFD1-Flag and E2F4-Strep II-HA with Flag agarose or HA agarose in TAP lysis buffer, 3-4 h at 4 °C. As to conditions: both partners purified.

For assay [2], the target named is T1, OFD1-Flag recombinant protein. Description: pull-down; in vitro peptide competition: 5 μg purified OFD1-Flag and E2F4-Strep II-HA with HA agarose; candidate peptides at 200 μM, validation at 0, 12.5, 25, 50, 100 and 200 μM; overnight at 4 °C. Particulars: both partners purified.

Here are results for two molecules from PMC12325586, “OFD1 inhibition induces BRCAness to create a therapeutic vulnerability to PARP inhibition in pancreatic cancer” (Nature Communications, 2025).

B1: E2F4-Strep II-HA recombinant protein (natural protein)
chain: not shown
notes: E2F4; also called recombinant E2F4; source: HEK293S, purified (StrepTactin XT beads, then HA agarose, eluted with HA peptide)
Consider B1, for which the binding result in assay [1] is on record as “binds”.

B2: E2F4 peptide spanning residues 283-302 (peptide)
peptide: ELSSLPLGPTTLDTRPLQSS
notes: the TAT-conjugated form was used on cells only; source: synthetic peptide
On to B2, for which, in assay [2], the binding result is on record as “binds”.
